Reference: US20240277868

System: synthetic TNF-derived myristoylated peptide

For “purified recombinant His-tagged wild type SIRT6”, which KmPEP is on record?
Its KmPEP is 61.1 µM.
